Experimental data published in patent US12344663 (CDR LIFE, dated 2025).
Where a chain is given by its changes, count along the chain named.

Columns and labels:
human complement C3 [1] = target: T1, human complement C3 (human, UniProt P01024 23-1663); assay: cell-based or functional assay
human complement C3 [2] = target: T1, human complement C3; assay: SPR (Biacore T100), target immobilized, single cycle kinetics, 1:1 Langmuir fit
Protocol: (§1) The kinetic parameters of the candidates are determined using a surface plasmon resonance (SPR) and Biacore T100 device. C3 and different variants thereof (Table 19) are immobilized as a ligand on a HC30M SPR sensor chip (XanTec bionanalytics, Germany) using EDC/[…] linking chemistry. Five increasing concentrations of each molecule (analyte) are consecutively injected using the single cycle kinetics (SCK) mode to determine the kinetic parameters. Regeneration between the candidates is done with 10 mM glycine*HCl, 2 M NaCl, pH 3.5. The data is fitted to a 1:1 Langmuir binding model and the kinetic parameters of on-rate (ka), off-rate (kd), and affinity […] were determined.

human C3b [3] = target: T2, human C3b (human, UniProt P01024 23-667; P01024 749-1663, limits assumed); assay: as above
T2 construct: domain: C3b; also called C3 cleavage fragments C3b
Protocol: as §1

human complement C3 [4] = target: T1, human complement C3; assay: as above; remark: listed apart in the source
Protocol: as §1

human C3b [5] = target: T2, human C3b; assay: as above; remark: listed apart in the source
Protocol: as §1

cynomolgus C3 = target: T3, cynomolgus C3 (cynomolgus (Macaca fascicularis)); assay: as above
T3 construct: also called cyno C3
Protocol: as §1

[6] = target: T4, recombinant wild-type human C3 (human, UniProt P01024 23-1663, limits assumed); assay: as above
T4 construct: Expressed in CHO cells with an N-terminal 6×His tag; also called recombinant C3; wildtype C3
Protocol: as §1

human C3 P314L = target: T5, human C3 P314L (human, UniProt P01024 23-1663, limits assumed); assay: as above
T5 construct: Expressed in CHO cells with an N-terminal 6×His tag; also called C3 SNP1 P314L; C3 SNP P314L
Protocol: as §1

human C3 R102G = target: T6, human C3 R102G (human, UniProt P01024 23-1663, limits assumed); assay: as above
T6 construct: Expressed in CHO cells with an N-terminal 6×His tag; also called C3 SNP2 R102G; C3 SNP R102G
Protocol: as §1

human complement C3 [7] = target: T1, human complement C3; assay: SPR
human C3b [8] = target: T2, human C3b; assay: SPR
human complement C3 [9] = target: T1, human complement C3; assay: cell-based or functional assay; remark: listed apart in the source
human complement C3 [10] = target: T1, human complement C3; assay: method not given; reference Clone IV
human C3b [11] = target: T2, human C3b; assay: method not given; reference Clone IV
human complement C3 [12] = target: T1, human complement C3; assay: affinity of the purified scFv, method not given
human complement C3 [13] = target: T1, human complement C3; assay: method not given
human C3b [14] = target: T2, human C3b; assay: method not given
human C3b [15] = target: T2, human C3b; assay: SPR; reference: the same molecule on intact human C3
Protocol: as §1

T1 sequence (P01024 23-1663 limits assumed): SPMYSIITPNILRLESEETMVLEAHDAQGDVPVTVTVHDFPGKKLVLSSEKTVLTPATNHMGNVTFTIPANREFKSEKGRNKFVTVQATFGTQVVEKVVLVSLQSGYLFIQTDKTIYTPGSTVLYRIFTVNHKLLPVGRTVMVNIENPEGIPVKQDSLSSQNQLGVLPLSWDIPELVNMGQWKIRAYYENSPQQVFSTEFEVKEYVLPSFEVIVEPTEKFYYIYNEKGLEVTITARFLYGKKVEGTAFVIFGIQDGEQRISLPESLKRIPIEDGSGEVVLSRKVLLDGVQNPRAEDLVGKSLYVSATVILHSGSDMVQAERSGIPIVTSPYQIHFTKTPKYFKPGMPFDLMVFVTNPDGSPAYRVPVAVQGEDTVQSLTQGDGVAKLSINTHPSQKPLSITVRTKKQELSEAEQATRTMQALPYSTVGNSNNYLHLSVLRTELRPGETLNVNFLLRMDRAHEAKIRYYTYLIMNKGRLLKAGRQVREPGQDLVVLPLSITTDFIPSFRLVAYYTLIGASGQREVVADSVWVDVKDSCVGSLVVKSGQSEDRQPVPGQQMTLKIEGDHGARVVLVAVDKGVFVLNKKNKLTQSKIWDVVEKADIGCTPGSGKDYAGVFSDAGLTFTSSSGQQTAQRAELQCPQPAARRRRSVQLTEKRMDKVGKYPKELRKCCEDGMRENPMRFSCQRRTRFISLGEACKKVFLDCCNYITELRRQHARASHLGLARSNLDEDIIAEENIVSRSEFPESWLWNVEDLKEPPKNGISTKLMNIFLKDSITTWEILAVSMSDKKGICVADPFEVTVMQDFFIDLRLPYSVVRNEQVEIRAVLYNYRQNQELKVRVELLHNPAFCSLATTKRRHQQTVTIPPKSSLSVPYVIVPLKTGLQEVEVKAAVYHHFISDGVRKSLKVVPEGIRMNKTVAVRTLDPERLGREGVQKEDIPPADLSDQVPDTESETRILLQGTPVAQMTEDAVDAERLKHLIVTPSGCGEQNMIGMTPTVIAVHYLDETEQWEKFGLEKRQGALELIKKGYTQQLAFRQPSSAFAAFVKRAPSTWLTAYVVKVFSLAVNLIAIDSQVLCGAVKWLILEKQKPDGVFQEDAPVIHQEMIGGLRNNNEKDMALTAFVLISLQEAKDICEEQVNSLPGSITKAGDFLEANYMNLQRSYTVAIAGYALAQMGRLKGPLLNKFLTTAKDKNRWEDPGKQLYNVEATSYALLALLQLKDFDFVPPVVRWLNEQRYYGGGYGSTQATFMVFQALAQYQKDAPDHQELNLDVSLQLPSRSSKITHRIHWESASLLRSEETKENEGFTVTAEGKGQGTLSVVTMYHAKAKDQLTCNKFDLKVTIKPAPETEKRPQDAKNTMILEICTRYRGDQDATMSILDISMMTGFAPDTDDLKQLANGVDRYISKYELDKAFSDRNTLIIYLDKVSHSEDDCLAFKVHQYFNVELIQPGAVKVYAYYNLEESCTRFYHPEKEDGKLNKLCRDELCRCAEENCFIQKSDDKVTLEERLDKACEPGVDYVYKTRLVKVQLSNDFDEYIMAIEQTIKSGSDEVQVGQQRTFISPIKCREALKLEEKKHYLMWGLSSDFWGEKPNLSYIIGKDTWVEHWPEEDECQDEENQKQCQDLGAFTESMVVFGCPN
T5 sequence (P01024 other isoform, or with tags, fused parts or gaps P314L P314L limits assumed): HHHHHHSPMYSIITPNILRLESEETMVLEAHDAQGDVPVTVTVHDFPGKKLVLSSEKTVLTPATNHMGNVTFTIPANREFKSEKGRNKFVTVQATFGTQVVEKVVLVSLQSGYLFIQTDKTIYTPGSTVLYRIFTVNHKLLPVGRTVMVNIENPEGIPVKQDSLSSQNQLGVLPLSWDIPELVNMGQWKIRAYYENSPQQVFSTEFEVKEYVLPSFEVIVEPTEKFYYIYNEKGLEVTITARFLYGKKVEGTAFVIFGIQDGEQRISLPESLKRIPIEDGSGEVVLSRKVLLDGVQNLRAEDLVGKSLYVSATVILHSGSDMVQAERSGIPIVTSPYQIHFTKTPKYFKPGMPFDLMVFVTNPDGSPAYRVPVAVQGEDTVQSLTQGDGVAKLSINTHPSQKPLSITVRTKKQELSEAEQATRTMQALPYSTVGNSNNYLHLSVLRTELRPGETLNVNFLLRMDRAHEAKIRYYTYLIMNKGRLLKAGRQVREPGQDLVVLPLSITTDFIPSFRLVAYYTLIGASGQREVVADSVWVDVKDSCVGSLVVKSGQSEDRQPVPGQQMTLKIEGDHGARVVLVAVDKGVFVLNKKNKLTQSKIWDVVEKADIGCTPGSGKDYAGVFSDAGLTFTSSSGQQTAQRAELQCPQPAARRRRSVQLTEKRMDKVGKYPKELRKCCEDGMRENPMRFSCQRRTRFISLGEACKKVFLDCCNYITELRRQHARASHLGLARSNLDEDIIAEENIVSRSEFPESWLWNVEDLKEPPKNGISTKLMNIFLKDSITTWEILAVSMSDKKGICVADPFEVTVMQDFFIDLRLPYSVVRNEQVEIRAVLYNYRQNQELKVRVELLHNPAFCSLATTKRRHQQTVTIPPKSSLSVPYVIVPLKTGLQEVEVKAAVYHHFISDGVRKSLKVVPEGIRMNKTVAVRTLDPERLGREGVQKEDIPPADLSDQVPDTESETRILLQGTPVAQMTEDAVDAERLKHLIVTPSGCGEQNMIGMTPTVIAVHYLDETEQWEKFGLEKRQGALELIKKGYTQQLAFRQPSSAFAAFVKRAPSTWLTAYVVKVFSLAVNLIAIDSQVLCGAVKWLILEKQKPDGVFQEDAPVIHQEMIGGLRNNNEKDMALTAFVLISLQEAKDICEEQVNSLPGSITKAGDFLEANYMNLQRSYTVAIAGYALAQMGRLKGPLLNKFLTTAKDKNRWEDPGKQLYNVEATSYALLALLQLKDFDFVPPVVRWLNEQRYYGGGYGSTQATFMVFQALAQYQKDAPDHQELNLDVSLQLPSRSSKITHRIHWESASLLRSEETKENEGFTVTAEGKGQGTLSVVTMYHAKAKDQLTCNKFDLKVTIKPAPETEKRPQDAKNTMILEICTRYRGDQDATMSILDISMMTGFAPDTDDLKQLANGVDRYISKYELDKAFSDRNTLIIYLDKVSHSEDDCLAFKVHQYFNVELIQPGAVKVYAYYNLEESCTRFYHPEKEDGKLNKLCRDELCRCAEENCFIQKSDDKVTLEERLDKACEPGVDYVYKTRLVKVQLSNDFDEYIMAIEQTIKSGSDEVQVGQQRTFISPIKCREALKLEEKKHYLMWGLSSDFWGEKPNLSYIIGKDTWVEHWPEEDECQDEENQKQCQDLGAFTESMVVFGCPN
T4 sequence (P01024 other isoform, or with tags, fused parts or gaps limits assumed): as the sequence (P01024 other isoform, or with tags, fused parts or gaps P314L P314L limits assumed) above, with L298P counted along it
T2 sequence (P01024 23-667 limits assumed, chain 1 of 2): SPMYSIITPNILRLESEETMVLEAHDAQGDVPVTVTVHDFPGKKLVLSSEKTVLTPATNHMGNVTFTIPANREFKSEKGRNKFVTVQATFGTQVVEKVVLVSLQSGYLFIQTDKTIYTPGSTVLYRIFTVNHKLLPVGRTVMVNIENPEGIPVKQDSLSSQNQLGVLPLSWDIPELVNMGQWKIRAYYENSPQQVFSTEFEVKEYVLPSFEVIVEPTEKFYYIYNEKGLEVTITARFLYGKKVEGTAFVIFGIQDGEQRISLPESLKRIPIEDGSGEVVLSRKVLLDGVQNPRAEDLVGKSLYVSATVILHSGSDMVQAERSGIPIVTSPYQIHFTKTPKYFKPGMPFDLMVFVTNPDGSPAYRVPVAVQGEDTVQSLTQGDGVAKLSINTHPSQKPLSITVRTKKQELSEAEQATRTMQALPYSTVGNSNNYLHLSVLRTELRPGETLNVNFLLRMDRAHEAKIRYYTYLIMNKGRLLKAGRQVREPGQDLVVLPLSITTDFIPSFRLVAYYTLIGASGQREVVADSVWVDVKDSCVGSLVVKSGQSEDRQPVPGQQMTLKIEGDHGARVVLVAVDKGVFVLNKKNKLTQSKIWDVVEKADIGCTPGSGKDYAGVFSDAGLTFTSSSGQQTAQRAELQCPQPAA
T2 sequence (P01024 749-1663 limits assumed, chain 2 of 2): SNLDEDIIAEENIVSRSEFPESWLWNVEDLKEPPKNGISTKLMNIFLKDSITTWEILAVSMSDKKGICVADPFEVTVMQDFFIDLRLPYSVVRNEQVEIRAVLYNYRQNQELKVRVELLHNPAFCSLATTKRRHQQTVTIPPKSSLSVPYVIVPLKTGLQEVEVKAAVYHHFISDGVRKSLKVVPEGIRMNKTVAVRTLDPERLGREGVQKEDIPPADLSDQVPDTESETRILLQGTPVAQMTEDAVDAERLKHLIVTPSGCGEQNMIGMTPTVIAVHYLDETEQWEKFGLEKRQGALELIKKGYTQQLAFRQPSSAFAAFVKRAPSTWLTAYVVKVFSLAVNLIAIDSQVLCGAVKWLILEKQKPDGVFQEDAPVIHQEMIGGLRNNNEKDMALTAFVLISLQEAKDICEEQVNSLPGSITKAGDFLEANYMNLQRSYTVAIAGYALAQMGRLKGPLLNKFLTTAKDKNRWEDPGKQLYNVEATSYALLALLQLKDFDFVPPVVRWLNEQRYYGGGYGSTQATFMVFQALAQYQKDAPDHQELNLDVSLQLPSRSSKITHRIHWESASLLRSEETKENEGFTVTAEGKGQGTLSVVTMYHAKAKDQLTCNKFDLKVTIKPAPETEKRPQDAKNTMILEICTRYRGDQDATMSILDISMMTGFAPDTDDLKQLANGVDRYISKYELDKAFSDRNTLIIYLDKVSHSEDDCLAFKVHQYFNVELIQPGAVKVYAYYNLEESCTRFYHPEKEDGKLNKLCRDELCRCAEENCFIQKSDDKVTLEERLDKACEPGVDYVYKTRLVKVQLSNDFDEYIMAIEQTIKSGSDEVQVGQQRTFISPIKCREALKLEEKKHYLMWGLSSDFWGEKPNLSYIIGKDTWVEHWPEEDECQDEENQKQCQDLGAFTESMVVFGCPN
T6 sequence (P01024 other isoform, or with tags, fused parts or gaps R102G R102G limits assumed): as the sequence (P01024 other isoform, or with tags, fused parts or gaps P314L P314L limits assumed) above, with R86G, L298P counted along it

B1: Clone II (scFv)
scFv: MQLVLTQSPSASASLGASVKLTCTLSSAHKTYTIDWYQQQPEKCPRYLMQLKSDGSYTKGSGIPDRFSGSSSGAERYLTISSLQSEDEADYYCGTEGVGGYVFGGGTKLTVLGGGGGSGGGGSGGGGSGGGGSQVQLVESGGGSVQPGRSLRLSCAASGFTFSNYAMNWVRQAPGKGLEWVAIINVGGGTNYADSVKGRFTISRDNSKNTLYLQMNSLRAEDTASYYCARAVGYHHARLDPWGCGTSVTVSS
notes: also called scFv of the invention
IC50 (nM), Alternative Pathway, Hemolysis (rabbit erythrocytes, human serum) (human complement C3 [1]): 668 nM | IC50 (nM), Alternative Pathway, MAC deposition (WEISLAB, human serum) (human complement C3 [1]): 360 nM | IC50 (nM), Classical Pathway, Hemolysis (antibody-sensitized sheep erythrocytes, human serum) (human complement C3 [1]): 69 nM | IC50 (nM), Classical Pathway, MAC deposition (WEISLAB, human serum) (human complement C3 [1]): 77 nM | IC50 (nM), Lectin Pathway, MAC deposition (WEISLAB, human serum) (human complement C3 [1]): 71 nM | Kd (human complement C3 [2]): 0.022 nM | Kd (human C3b [3]): 0.05 nM | Kd (human complement C3 [4]): 0.022 nM | koff (human complement C3 [4]): 5.5e-06 s⁻¹ | kon (human complement C3 [4]): 250000 M⁻¹ s⁻¹ | Kd (human C3b [5]): 0.05 nM | koff (human C3b [5]): 1.2e-05 s⁻¹ | kon (human C3b [5]): 250000 M⁻¹ s⁻¹ | Kd (cynomolgus C3): 0.07 nM | koff (cynomolgus C3): 1.5e-05 s⁻¹ | kon (cynomolgus C3): 210000 M⁻¹ s⁻¹ | Kd [6]: 0.035 nM | koff [6]: 1e-05 s⁻¹ | kon [6]: 300000 M⁻¹ s⁻¹ | Kd (human C3 P314L): < 0.04 nM | koff (human C3 P314L): < 1.1e-05 s⁻¹ | kon (human C3 P314L): 290000 M⁻¹ s⁻¹ | Kd (human C3 R102G): 0.021 nM | koff (human C3 R102G): 7e-06 s⁻¹ | kon (human C3 R102G): 330000 M⁻¹ s⁻¹

B2: Clone III (scFv)
scFv: B1 scFv with D54E
notes: as for B1
IC50 (nM), Alternative Pathway, Hemolysis (rabbit erythrocytes, human serum) (human complement C3 [1]): 745 nM | IC50 (nM), Alternative Pathway, MAC deposition (WEISLAB, human serum) (human complement C3 [1]): 349 nM | IC50 (nM), Classical Pathway, Hemolysis (antibody-sensitized sheep erythrocytes, human serum) (human complement C3 [1]): 72 nM | IC50 (nM), Classical Pathway, MAC deposition (WEISLAB, human serum) (human complement C3 [1]): 73 nM | IC50 (nM), Lectin Pathway, MAC deposition (WEISLAB, human serum) (human complement C3 [1]): 64 nM | Kd (human complement C3 [2]): 0.151 nM | Kd (human C3b [3]): 0.127 nM | Kd (human complement C3 [4]): 0.151 nM | koff (human complement C3 [4]): 3.6e-05 s⁻¹ | kon (human complement C3 [4]): 240000 M⁻¹ s⁻¹ | Kd (human C3b [5]): 0.127 nM | koff (human C3b [5]): 3.1e-05 s⁻¹ | kon (human C3b [5]): 250000 M⁻¹ s⁻¹ | Kd (cynomolgus C3): 0.208 nM | koff (cynomolgus C3): 4.3e-05 s⁻¹ | kon (cynomolgus C3): 200000 M⁻¹ s⁻¹ | Kd [6]: 0.128 nM | koff [6]: 3.5e-05 s⁻¹ | kon [6]: 270000 M⁻¹ s⁻¹ | Kd (human C3 P314L): 0.127 nM | koff (human C3 P314L): 3.2e-05 s⁻¹ | kon (human C3 P314L): 250000 M⁻¹ s⁻¹ | Kd (human C3 R102G): 0.115 nM | koff (human C3 R102G): 3.2e-05 s⁻¹ | kon (human C3 R102G): 280000 M⁻¹ s⁻¹

B3: Clone XIII (scFv)
scFv: MQLVLTQSPSASASLGASVKLTCTLSSAHKTYTIDWYQQQPEKCPRYLMQLKSEGSYTKGTGVPDRFSGSSSGAERYLTISSLQSEDEADYYCGTEGVGGYVFGGGTKLTVLGGGGGSGGGGSGGGGSGGGGSQVQVVESGGGSVQPGRSLRLSCAVSGFSLYNYAMNWVRQAPGKGLEWIGIINVGGGTNYASWAKGRFTISTDNSKNTVYLQMNSLRAEDTASYYCARAVGYHHARLDPWGCGTSVTVSS
Kd (human complement C3 [7]): 0.116 nM | Kd (human C3b [8]): 0.11 nM | IC50, complement inhibition in the alternative pathway (human complement C3 [9]): 260 nM | IC50, complement inhibition in the classical pathway (human complement C3 [9]): 60 nM

B4: Clone XIV (scFv)
scFv: B3 scFv with A237S
notes: also called Cone XIV
Kd (human complement C3 [7]): 0.129 nM | Kd (human C3b [8]): 0.116 nM | IC50, complement inhibition in the alternative pathway (human complement C3 [9]): 250 nM | IC50, complement inhibition in the classical pathway (human complement C3 [9]): 50 nM

B5: Clone VIII (scFv)
scFv: B3 scFv with C44G, E88S, D90V, G105C, G177C, A237S, C244Q
fold increase in the binding affinity compared to Clone IV (human complement C3 [10]): ~10 fold | fold increase in the binding affinity compared to Clone IV (human C3b [11]): ~10 fold | Kd (human complement C3 [12]): 0.184 nM

B6: Clone VII (scFv)
scFv: B3 scFv with C44G, E88S, D90V, G105C, G177C, A237H, R238A, C244Q
Kd (human complement C3 [12]): 1.1 nM

B7: Clone IX (scFv)
scFv: B3 scFv with C44G, E88S, D90V, E96D, G105C, G177C, A237H, R238A, C244Q
Kd (human complement C3 [12]): 1.3 nM

B8: Clone XII (scFv)
scFv: B3 scFv with E96D, G97Y, V98G
Kd (human complement C3 [7]): 4.7 nM | Kd (human C3b [8]): 4.8 nM | IC50, complement inhibition in the alternative pathway (human complement C3 [9]): 210 nM | IC50, complement inhibition in the classical pathway (human complement C3 [9]): 98 nM

B9: Clone I (scFv)
scFv: MQLVLTQSPSASASLGASVKLTCTLSSAHKTYTIDWYQQQPEKCPRYLMQLKSDGSYTKGSGIPDRFSGSSSGAERYLTISSLQSEDEADYYCGTEGVGGYVFGGGTKLTVLGGGGGSGGGGSGGGGSGGGGSQVQLVESGGGSVQPGRSLRLSCAASGFTFSNYAMNWVRQAPGKGLEWVAVISYDGSNKYYADSVKGRFTISRDNSKNTLYLQMNSLRAEDTASYYCARAVGYHHARLDPWGCGTSVTVSS
notes: also called exemplary antibody of the invention (Clone I); scFv of the invention
IC50 (nM), Alternative Pathway, Hemolysis (rabbit erythrocytes, human serum) (human complement C3 [1]): 705 nM | IC50 (nM), Alternative Pathway, MAC deposition (WEISLAB, human serum) (human complement C3 [1]): 344 nM | IC50 (nM), Classical Pathway, Hemolysis (antibody-sensitized sheep erythrocytes, human serum) (human complement C3 [1]): 74 nM | IC50 (nM), Classical Pathway, MAC deposition (WEISLAB, human serum) (human complement C3 [1]): 79 nM | IC50 (nM), Lectin Pathway, MAC deposition (WEISLAB, human serum) (human complement C3 [1]): 67 nM | Kd (human complement C3 [13]): 0.16 nM | Kd (human C3b [14]): 0.14 nM | Kd (human complement C3 [2]): 0.152 nM | Kd (human C3b [3]): 0.149 nM | Kd (human complement C3 [4]): 0.152 nM | koff (human complement C3 [4]): 4.7e-05 s⁻¹ | kon (human complement C3 [4]): 310000 M⁻¹ s⁻¹ | Kd (human C3b [5]): 0.149 nM | koff (human C3b [5]): 4.8e-05 s⁻¹ | kon (human C3b [5]): 320000 M⁻¹ s⁻¹ | Kd (cynomolgus C3): 0.267 nM | koff (cynomolgus C3): 6.3e-05 s⁻¹ | kon (cynomolgus C3): 240000 M⁻¹ s⁻¹ | Kd [6]: 0.148 nM | koff [6]: 4.9e-05 s⁻¹ | kon [6]: 330000 M⁻¹ s⁻¹ | Kd (human C3 P314L): 0.14 nM | koff (human C3 P314L): 4.2e-05 s⁻¹ | kon (human C3 P314L): 300000 M⁻¹ s⁻¹ | Kd (human C3 R102G): 0.135 nM | koff (human C3 R102G): 4.5e-05 s⁻¹ | kon (human C3 R102G): 330000 M⁻¹ s⁻¹

B10: Clone IV (scFv)
scFv: QSVKESGGRLVTPGTPLTLTCTVSGFSLYNYAMNWVRQAPGKGLEWIGIINTDGNTNYASWAKGRFTISTTSSTTVDLKITSPTTEDTATYFCPRAVGYHHHALDPWGPGTLVTVSSGGGGSGGGGSGGGGSGGGGASELVLTQSPSVSAALGASAKLTCTLSSAHKTYTIDWYQQQQGEAPRYLMQLKSDGSYTKGTGVPDRFSGSSSGADRYLIIPSVQADDEADYYCGTDYGGGYVFGGGTQLTVTG
IC50, complement inhibition in the alternative pathway (human complement C3 [9]): 280 nM | IC50, complement inhibition in the classical pathway (human complement C3 [9]): 80 nM

B11: Comparative Compound A3 (antibody, human IgG1, kappa, V domains shown)
VH: QVQLVQSGAEVKKPGASVKVSCKASGYTFTDFYMDWVRQAPGQRLEWMGYIYPHNGGTTYNQQFTGRVTITVDKSASTAYMELSSLRSEDTAVYYCARRGGFDFDYWGQGTLVTVSS
VL: DIQMTQSPSSLSASVGDRVTITCKASENVDTYVSWYQQKPGKAPKLLIYGASNRYTGVPSRFSGSGSGTDFTFTISSLQPEDIATYHCGQSHSYPLTFGQGTKLEIKR
IC50 (nM), Alternative Pathway, Hemolysis (rabbit erythrocytes, human serum) (human complement C3 [1]): 207 nM | IC50 (nM), Alternative Pathway, MAC deposition (WEISLAB, human serum) (human complement C3 [1]): 548 nM | IC50 (nM), Classical Pathway, Hemolysis (antibody-sensitized sheep erythrocytes, human serum) (human complement C3 [1]): 56 nM | IC50 (nM), Classical Pathway, MAC deposition (WEISLAB, human serum) (human complement C3 [1]): 56 nM | IC50 (nM), Lectin Pathway, MAC deposition (WEISLAB, human serum) (human complement C3 [1]): 58 nM

B12: Compound A3 Fab (Fab, V domains shown)
VH: B11 VH
VL: B11 VL
notes: also called NGM621 surrogate in a Fab format
fold lower affinity to C3b than to intact human C3 (human C3b [15]): > 100 fold | Kd (human complement C3 [2]): 0.34 nM
